The target in data set [1] is T1, von Willebrand factor full length (Homo sapiens, UniProt P04275 SEQ:764-2813). In words: filter; 21% bound at 100 nM vWF. To be noted: tags: Calbiochem 681300; label: 5'-32P. On the procedure: (§1) For KD determination, chemically synthesized aptamers were purified using denaturing polyacrylamide gel electrophoresis, 5′end labeled with γ-³²P ATP and were tested for direct binding to full length human vWF (Calbiochem Cat.# 681300, La Jolla, Calif.). An 8 point protein titration was used in the dot blot binding assay (100 nM, 30 nM, 10 nM, 3 nM, 1 nM, 300 pM, 100 pM, 0 pM)) in 1× Dulbecco's PBS containing […] (final volume of 50 uL) for 30 minutes at room temperature. KD values were calculated by fitting the equation y=(max/(1+K/protein))+yint using KaleidaGraph (KaleidaGraph v. 3.51, Synergy Software).

In data set [2] the target is T1, von Willebrand factor full length. In words: filter; no binding. To be noted: tags: Calbiochem 681300; label: 5'-32P.
Data set [3] has the same target. In words: filter; 48.3% bound at 100 nM vWF. To be noted: tags: Calbiochem 681300; label: 5'-32P. On the procedure: as §1
The target is the same in data set [4]. In words: filter; 25.6% bound at 100 nM vWF. To be noted: tags: Calbiochem 681300; label: 5'-32P. On the procedure:
as §1

Data set [5] shares this target. Kind of data set: filter; 46% bound at 100 nM vWF. The following applies: tags: Calbiochem 681300; label: 5'-32P. How it is done:
as §1

For data set [6] the target is unchanged. In words: filter; 45% bound at 100 nM. To be noted: tags: Calbiochem 681300. How it is done: as §1
Data set [7] has the same target. Kind of data set: filter; 39% bound at 100 nM vWF. To be noted: tags: Calbiochem 681300; label: 5'-32P. How it is done: as §1
Data set [8] shares this target. In words: filter; 28% bound at 100 nM vWF. The following applies: tags: Calbiochem 681300; label: 5'-32P. How it is done:
as §1

Data set [9] shares this target. In words: filter; 37% bound at 100 nM vWF. To be noted: tags: Calbiochem 681300; label: 5'-32P. How it is done:
as §1

Data set [10] shares this target. Kind of data set: filter; 37% bound at 100 nM. The following applies: tags: Calbiochem 681300. On the procedure:
as §1

Data set [11] shares this target. In words: filter; 16% bound at 100 nM vWF. To be noted: tags: Calbiochem 681300; label: 5'-32P. On the procedure: as §1
Data set [12] shares this target. In words: filter; 23% bound at 100 nM vWF. To be noted: tags: Calbiochem 681300; label: 5'-32P. On the procedure: as §1
For data set [13] the target is unchanged. Kind of data set: filter; 49% bound at 100 nM. To be noted: tags: Calbiochem 681300. On the procedure:
as §1

Data set [14] shares this target. In words: filter; 47% bound at 100 nM vWF. The following applies: tags: Calbiochem 681300; label: 5'-32P. How it is done: as §1
Data set [15] shares this target. In words: filter; only 6% bound at 100 nM vWF. The following applies: tags: Calbiochem 681300; label: 5'-32P. How it is done: as §1
Data set [16] shares this target. Kind of data set: filter; 56% bound at 100 nM vWF. The following applies: tags: Calbiochem 681300; label: 5'-32P. On the procedure:
as §1

Data set [17] shares this target. Kind of data set: filter; only 2% bound at 100 nM vWF. To be noted: tags: Calbiochem 681300; label: 5'-32P. On the procedure: as §1
For data set [18] the target is unchanged. Kind of data set: filter; 25% bound at 100 nM vWF. To be noted: tags: Calbiochem 681300; label: 5'-32P. How it is done: as §1
For data set [19] the target is unchanged. Kind of data set: filter; 39% bound at 100 nM. The following applies: tags: Calbiochem 681300. On the procedure: as §1
For data set [20] the target is unchanged. Kind of data set: filter; 50% bound at 100 nM vWF. To be noted: tags: Calbiochem 681300; label: 5'-32P. How it is done: as §1
The target is the same in data set [21]. Kind of data set: filter; 18% bound at 100 nM vWF. To be noted: tags: Calbiochem 681300; label: 5'-32P. On the procedure:
as §1

The target is the same in data set [22]. In words: filter; 9% bound at 100 nM vWF. To be noted: tags: Calbiochem 681300; label: 5'-32P. On the procedure: as §1
Data set [23] shares this target. Kind of data set: filter; 36% bound at 100 nM vWF. The following applies: tags: Calbiochem 681300; label: 5'-32P. How it is done: as §1
For data set [24] the target is unchanged. Kind of data set: filter; no binding. The following applies: tags: Calbiochem 681300; label: 5'-32P. How it is done: as §1
This is another data set of the same source.

Data set [25] has the same target. In words: filter; DPBS, 0.1 mg/mL BSA, RT. The following applies: tags: Calbiochem 681300; label: 5'-32P. On the procedure: Minimers were tested for direct binding to full length human vWF (SEQ ID NO 7), and rabbit vWF A1 domain (SEQ ID NO 6) using a 9 point protein titration (100 nM, 30 nM, 10 nM, 3 nM, 1 nM, 300 pM, 100 pM, 30 pM, 0 pM) (see FIG. 6) in 1×Dulbecco's PBS containing 0.1 mg/mL BSA (final volume of 50 uL) for 30 minutes at room temperature and then applied to a nitrocellulose and nylon filter sandwich in a dot blot apparatus (Schleicher and Schuell, Keene, N.H.). KD values were calculated by fitting the equation y=(max/(1+K/protein))+yint using KaleidaGraph (KaleidaGraph v. 3.51, Synergy Software).

32 molecules from patent US20060264369, “Aptamers to von Willebrand Factor and their use as thrombotic disease therapeutics” (published 2006) can be followed below.

B1: ARC1343 (mixed)
mixed: GGCGUGCAGUGCCUUCGGCCGTGCGGTGCCUCCGUCACGCC
modifications: 2'-OMe/deoxy composite with 4 PS as printed in Table 22, 3'-idT
Consider B1, for which, in [1], the Kd (in general, the concentration at which binding is half-saturated) was found to be 23.9 nM.

B2: ARC845 (ssDNA)
DNA: ATGAGAGTGCTGGTGGATTGCTCAGGTCTGCTGGCTGCTTACTCTCAT
Consider B2, for which the binding result in data set [2] is “no binding”.

B3: ARC1535 (mixed)
mixed: CCGGCCGTGCGGTGCCUCCGUCACUUUGUGCAGUGCCGG
modifications: 2'-OMe/deoxy composite, single PS, 3'-idT
With B3, the Kd in [3] came out at 27.1 nM.

B4: ARC1534 (mixed)
mixed: CGGCCGTGCGGTGCCUCCGUCACUUUGUGCAGUGCCG
modifications: 2'-OMe/deoxy composite, single PS, 3'-idT
B4: the Kd in [4] amounted to 62.8 nM.

B5: ARC1759 (ssDNA)
DNA: GGCGTGCAGTGCCTTCGGCCGTGCGGTGCCTCCGTCACGCC
modifications: single PS between G21 and T22, 3'-idT
On to B5, for which, in data set [5], the Kd is 0.7 nM.

B6: ARC1204 (ssDNA)
DNA: GGCGTGCAGTGCCTTCGGCCGTGCGGTGCCTCCGTCACGCC
modifications: 2'-OMe at 11; 3'-idT
With B6, in data set [6], the Kd is 2 nM.

B7: ARC1339 (mixed)
mixed: GGCGTGCAGUGCCTTCGGCCGTGCGGTGCCTCCGUCACGCC
modifications: 2'-OMe at 9, 10, 21, 23, 34-36, 3'-idT
Take B7: the dissociation constant (Kd) in data set [7] was determined as 2.4 nM.

B8: ARC1199 (ssDNA)
DNA: GGCGTGCAGTGCCTTCGGCCGTGCGGTGCCTCCGTCACGCC
modifications: 2'-OMe G6, 3'-idT
Regarding B8, in data set [8], the Kd stood at 19 nM.

B9: ARC1172 (ssDNA)
DNA: GGCGTGCAGTGCCTTCGGCCGTGCGGTGCCTCCGTCACGCC
modifications: 3'-idT
On to B9, for which the Kd in data set [9] is 2 nM.

B10: ARC1229 (ssDNA)
DNA: GGCGTGCAGTGCCTTCGGCCGTGCGGTGCCTCCGTCACGCC
modifications: 2'-OMe at 36; 3'-idT
In the case of B10, the Kd in data set [10] was found to be 5 nM.

B11: ARC1208 (ssDNA)
DNA: GGCGTGCAGTGCCTUCGGCCGTGCGGTGCCTCCGTCACGCC
modifications: 2'-OMe at 15 (mU); 3'-idT
On to B11, for which the Kd in data set [6] is 2 nM.

B12: ARC1225 (ssDNA)
DNA: GGCGTGCAGTGCCTTCGGCCGTGCGGTGCCTCCGTCACGCC
modifications: 2'-OMe C32, 3'-idT
For B12, in data set [11], the Kd came out at 11 nM.

B13: ARC1235 (mixed)
DNA: GGCGTGCAGTGCCTTCGGCCGTGCGGTGCCTCCGTCACGCC
modifications: 2'-OMe G1 G2 G4 G6 A37 G39, 3'-idT
As to B13, the Kd in [12] stood at 13 nM.

B14: ARC1239 (ssDNA)
DNA: GGCGTGCAGTGCCTTCGGCCGTGCGGTGCCTCCGTCACGCC
modifications: 2'-OMe at 12,13,19; 3'-idT
Take B14: the Kd in data set [10] is 5 nM.

B15: ARC1212 (ssDNA)
DNA: GGCGTGCAGTGCCTTCGGCCGTGCGGTGCCTCCGTCACGCC
modifications: 2'-OMe at 19; 3'-idT
As to B15, the Kd in data set [13] stood at 2 nM.

B16: ARC1224 (ssDNA)
DNA: GGCGTGCAGTGCCTTCGGCCGTGCGGTGCCUCCGTCACGCC
modifications: 2'-OMe U31, 3'-idT
B16: the Kd in [14] was determined as 0.5 nM.

B17: ARC1201 (ssDNA)
DNA: GGCGTGCAGTGCCTTCGGCCGTGCGGTGCCTCCGTCACGCC
modifications: 2'-OMe A8, 3'-idT
Take B17: in data set [15], the Kd was found to be 0.9 nM.

B18: ARC1202 (ssDNA)
DNA: GGCGTGCAGTGCCTTCGGCCGTGCGGTGCCTCCGTCACGCC
modifications: 2'-OMe G9, 3'-idT
In the case of B18, the Kd in [16] came out at 0.4 nM.

B19: ARC1218 (ssDNA)
DNA: GGCGTGCAGTGCCTTCGGCCGTGCGGTGCCTCCGTCACGCC
modifications: 2'-OMe G25, 3'-idT
On to B19, for which the Kd in data set [17] was 32 nM.

B20: ARC1200 (ssDNA)
DNA: GGCGTGCAGTGCCTTCGGCCGTGCGGTGCCTCCGTCACGCC
modifications: 2'-OMe C7, 3'-idT
With B20, the Kd in [18] is 5 nM.

B21: ARC1210 (ssDNA)
DNA: GGCGTGCAGTGCCTTCGGCCGTGCGGTGCCTCCGTCACGCC
modifications: 2'-OMe at 17; 3'-idT
With B21, in [13], the Kd amounted to 2 nM.

B22: ARC1214 (ssDNA)
DNA: GGCGTGCAGTGCCTTCGGCCGTGCGGTGCCTCCGTCACGCC
modifications: 2'-OMe at 21; 3'-idT
As for B22, the Kd in [19] stood at 3 nM.

B23: ARC1226 (ssDNA)
DNA: GGCGTGCAGTGCCTTCGGCCGTGCGGTGCCTCCGTCACGCC
modifications: 2'-OMe C33, 3'-idT
For the molecule B23, in data set [18], the dissociation constant (Kd) amounted to 12 nM.

B24: ARC1233 (ssDNA)
DNA: GGCGTGCAGTGCCTTCGGCCGTGCGGTGCCTCCGTCACGCC
modifications: 2'-OMe at 40; 3'-idT
On to B24, for which, in data set [19], the Kd came out at 2 nM.

B25: ARC1198 (ssDNA)
DNA: GGCGUGCAGTGCCTTCGGCCGTGCGGTGCCTCCGTCACGCC
modifications: 2'-OMe U5, 3'-idT
Regarding B25, in [20], the Kd was 0.9 nM.

B26: ARC1217 (ssDNA)
DNA: GGCGTGCAGTGCCTTCGGCCGTGCGGTGCCTCCGTCACGCC
modifications: 2'-OMe C24, 3'-idT
Take B26: the Kd in [21] was determined as 14 nM.

B27: ARC1237 (mixed)
mixed: GGCGUGCAGTGCCTTCGGCCGTGCGGTGCCTCCGTCACGCC
modifications: 2'-OMe at 1-6 and 36-41, 3'-idT
Regarding B27, the Kd in data set [22] is 41 nM.

B28: ARC1338 (mixed)
mixed: GGCGUGCAGTGCCTTCGGCCGTGCGGTGCCTCCGTCACGCC
modifications: 2'-OMe at 1-5 and 37-41, 3'-idT
Regarding B28, the Kd in data set [1] was 7.4 nM.

B29: ARC1115 (ssDNA)
DNA: GGCGTGCAGTGCCTTCGGCCGTGCGGTGCCTCCGTCACGCC
Turning to B29, the Kd in data set [23] came to 2 nM.

B30: ARC1348 (mixed)
mixed: GCGUGCAGUGCUUCGCCGTGCGGTGCCUCCGUCACGC
modifications: 2'-OMe/deoxy composite, 3'-idT
On to B30, for which the binding result in data set [24] is recorded as “no binding”.

B31: ARC1347 (mixed)
mixed: GGCGUGCAGUGCUUCGCCGTGCGGTGCCUCCGUCACGCC
modifications: 2'-OMe/deoxy composite, 3'-idT
Turning to B31, in data set [24], the binding result is reported as “no binding”.

B32: ARC1027 (ssDNA)
DNA: GGCGTGCAGTGCCTATTCTAGGCCGTGCGGTGCCTCCGTCACGCC
modifications: 3'-idT
Consider B32, for which the Kd in [25] came to 0.8 nM.
